According to PMC10681723, “The N-terminus of Spt16 anchors FACT to MCM2–7 for parental histone recycling” (Nucleic Acids Research, 2023):

Target: Recombinant Saccharomyces cerevisiae histone H3/H4 (Saccharomyces cerevisiae, UniProt P61830 1-136; P02309 1-103)
Experiment: pull-down; 2 μg GST-Mcm2HBD on Glutathione Sepharose; 0.1, 0.2 and 0.4 μg histone H3/H4 in 0.4 ml buffer A150 (25 mM Tris pH 7.5, 1 mM EDTA, 0.01% NP-40, 150 mM NaCl), 6 h, 4°C; CBB staining
Conditions: both partners purified

B1: GST-tagged Mcm2HBD (residues 1–200) (domain or fragment, yeast, UniProt P29469 1-200, looked up)
chain: MSDNRRRRREEDDSDSENELPPSSPQQHFRGGMNPVSSPIGSPDMINPEGDDNEVDDVPDIDEVEEQMNEVDLMDDNMYEDYAADHNRDRYDPDQVDDREQQELSLSERRRIDAQLNERDRLLRNVAYIDDEDEEQEGAAQLDEMGLPVQRRRRRRQYEDLENSDDDLLSDMDIDPLREELTLESLSNVKANSYSEWITQ
notes: also called GST-Mcm2HBD; source: E. coli BL21(DE3) CodonPlus RIL, pGEX4T-1, purified (Glutathione Sepharose)
B1: binds.
